How the values were obtained:
Test in all cases: co-IP
[1] = target: LAP-tagged FUS/TLS P525L (human) (UniProt P35637)
[2] = target: LAP-tagged FUS/TLS R495X (human) (UniProt P35637)
[3] = target: LAP-tagged FUS/TLS R521G (human) (UniProt P35637)

Measured: fold reduction of association against wild-type FUS/TLS

Sm-B/D (components of Sm core)
5 fold: [1] | [2] | [3]

— article PMC4338613
